Measured values as given in paper PMC10696041.

Target: C-propeptide of collagen III
Assay: SPR; C-propeptide III immobilised by amine coupling on CM5; 10 mM HEPES pH 7.4, 0.15 M NaCl, 5 mM CaCl2, 0.05% P20, 25 °C

- Kd: 45 nM
B1: procollagen C-proteinase enhancer-2 with N-terminal 6His-tag (natural protein)
chain: QSPERPVFTCGGILTGESGFIGSEGFPGVYPPNSKCTWKITVPEGKVVVLNFRFIDLESDNLCRYDFVDVYNGHANGQRIGRFCGTFRPGALVSSGNKMMVQMISDANTAGNGFMAMFSAAEPNERGDQYCGGLLDRPSGSFKTPNWPDRDYPAGVTCVWHIVAPKNQLIELKFEKFDVERDNYCRYDYVAVFNGGEVNDARRIGKYCGDSPPAPIVSERNELLIQFLSDLSLTADGFIGHYIFRPKKLPTTTEQPVTTTFPVTTGLKPTVALCQQKCRRTGTLEGNYCSSDFVLAGTVITTITRDGSLHATVSIINIYKEGNLAIQQAGKNMSARLTVVCKQCPLLRRGLNYIIMGQVGEDGRGKIMPNSFIMMFKTKNQKLLDALKNKQC
